Target: human PD-1 (programmed cell death 1) (human) (UniProt Q15116)
Assay: column Affinity (nM); by the footnote of Tables 3 and 11: FACS staining of endogenous cell surface PD-1 on activated CD4 T cells [row BMS-5C4]

UniProt Q15116, sequence (Q15116 25-288 limits assumed): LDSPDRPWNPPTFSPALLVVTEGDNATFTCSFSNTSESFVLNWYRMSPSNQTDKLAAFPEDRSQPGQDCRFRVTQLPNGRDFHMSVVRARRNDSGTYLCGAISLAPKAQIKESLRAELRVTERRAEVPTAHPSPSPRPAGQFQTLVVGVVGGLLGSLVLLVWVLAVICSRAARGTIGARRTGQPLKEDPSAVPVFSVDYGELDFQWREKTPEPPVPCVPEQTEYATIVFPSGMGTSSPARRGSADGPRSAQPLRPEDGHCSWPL

BMS-5C4 (antibody)
Affinity: 0.6 nM

Source: US20180265582A1
